Experiments:
[1] = target: galectin-10 (Gal10), species and tag not stated for the assay (UniProt Q05315); test: competition ELISA; negative control; competitor biotinylated g7B07 hFab (detected)
[2] = target: galectin-10 (Gal10), species and tag not stated for the assay (UniProt Q05315); test: competition ELISA; negative control, set as 0% competition; competitor biotinylated g7B07 hFab

Sequence of galectin-10 (Gal10), species and tag not stated for the assay (Q05315 2-142 limits assumed): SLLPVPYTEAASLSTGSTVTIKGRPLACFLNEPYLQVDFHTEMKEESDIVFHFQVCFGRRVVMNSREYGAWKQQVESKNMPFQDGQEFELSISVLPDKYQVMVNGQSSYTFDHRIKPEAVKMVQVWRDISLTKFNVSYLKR

Mean OD value [1]: 2.51 OD
% Competition against g7B07-Biot [2]: 0%
Substance: Motavizumab in human Fab backbone

Source: patent US20250059284A1
